This note sets out measurements from the RNAGym collection of RNA variant scans (doi:10.7554/elife.90254).

The chains are these.
B1: OR4K15 (parent)
chain: GUUAACGGUCAUAGGCCAUGGAAACUAGGAGCACCAUUUCGCUGCCAGUGAAGAAAUGAACAAAGAAAAUCUGGGCCAGGCAGGCAUCAAAAGAAAUAGUCUUGCGCUCAACCAGAAAGUCUGUAAUCAUUUUAAGGGUA

The variants in this data set derive from B1. The experiment in a line: self-cleavage, relative activity (ratio to wild type); higher = more cleavage; in vitro, sequencing; the parent is a self-cleaving ribozyme.
GUUAACGGUCAUAGGCCAUGGAAACUAGAAGCACCAUUUCGCUGCCAGUGAAGAAAUGAACAAAGAAAAUCUGGGCCAGGCAGGCAUCAAAAGAAAUAGUCUUGCGCUCAACCAGAAAGUCUGUAAUCAUCUUAAGGGUA: the self-cleavage came out at 0.66. As to GUUAACGGUCAUAGGCCAUGGAAACUAGAAGCACCAUUUCGCUGCCAGUGAAGAAAUGAACAAAGAAAAUCUGGGCCAGGCAGGCAUCAAAAGAAAUAGUCUUGCGCUCAACCAGAAAGUCUGAAAUCAUUUUAAGGGUA, the self-cleavage turned out to be 0.77. With GUUAACGGUCAUAGGCCAUGGAAACUAAGAGCACCAUUUCGCUGCCAGUGAAGAAACGAACAAAGAAAAUCUGGGCCAGGCAGGCAUCAAAAGAAAUAGUCUUGCGCUCAACCAGAAAGUCUGUAAUCAUUUUAAGGGUA the figure was 0.4; with GUUAACGGUCAUAGGCCAUGGAAACUAGAAGCACCAUUUCGCUGCCAGUGAAGAAGUGAACAAAGAAAAUCUGGGCCAGGCAGGCAUCAAAAGAAAUAGUCUUGCGCUCAACCAGAAAGUCUGUAAUCAUUUUAAGGGUA, 1.5; with GUUAACGGUCAUAGGCCAUGGAAACUAGAAGCACCAUUUCGCUGCCAGUGAAGAAAUGAACAAAGAAAAUCUGGGCCAGGCAGGCAUCAAAAGAAGUAGUCUUGCGCUCAACCAGAAAGUCUGUAAUCAUUUUAAGGGUA, 2.13. The figure for GUUAACGGUCAUAGGCCAUGGAAACUAGAAGCACCAUUUCGCUGCCAGUGAAGAAAUGAACAAAGAAAAUCUGGGCCAGGCAGGCAUCAAAAGAAACAGUCUUGCGCUCAACCAGAAAGUCUGUAAUCAUUUUAAGGGUA is 1.22.

On to GUUAACGGUCAUAGGCCAUGGAAACUAGAAGCACCAUUUCGCUGCCAGUGAAGAAAUGGACAAAGAAAAUCUGGGCCAGGCAGGCAUCAAAAGAAAUAGUCUUGCGCUCAACCAGAAAGUCUGUAAUCAUUUUAAGGGUA, for which the self-cleavage is 1.26. The figure for GUUAACGGUCAUAGGCCAUGGAAACUAGAAGCACCAUUUCGCUGCCAGUGAAGAAAUGAACAAAGAAAAUCUGGGCCAGGCAGGCAUCAAAAGAAAUAGUCUUGCGCUCAACCAGAGAGUCUGUAAUCAUUUUAAGGGUA is 1.77.

For GUUAACGGUCAUAGGCCAUGGAAACUAAGAGCACCAUUCCGCUGCCAGUGAAGAAAUGAACAAAGAAAAUCUGGGCCAGGCAGGCAUCAAAAGAAAUAGUCUUGCGCUCAACCAGAAAGUCUGUAAUCAUUUUAAGGGUA, the self-cleavage is 2.09. With GUUAACGGUCAUAGGCCAUGGAAACUAGAAGCACCAUUUCGCUGCCAGUGAAGAAAUGAACAAAGAAAAUCUGGGCCAGGCAGGCAUCAAAAGAAAUAGUCUUGCGCUCAACCAGAAAGUCUGUGAUCAUUUUAAGGGUA the figure was 0.24; with GUUAACGGUCAUAGGCCAUGGAAACUAGUAGCACCAUUUCGCUGCCAGUGAAGAAAUGGACAAAGAAAAUCUGGGCCAGGCAGGCAUCAAAAGAAAUAGUCUUGCGCUCAACCAGAAAGUCUGUAAUCAUUUUAAGGGUA, 1.31. With GUUAACGGUCAUAGGCCAUGGAAACUAAGAGCACCAUUUCGCUGCCAGUGAAGAAAUGAACAAAGAAAAUCUGGGCCAGGCAGGCAUCAAAAGAAACAGUCUUGCGCUCAACCAGAAAGUCUGUAAUCAUUUUAAGGGUA the figure was 0.59; with GUUAACGGUCAUAGGCCAUGGAAACUAGCAGCACCAUUUCGCUGCCAGUGAAGAAAUGAACAAAGAAAAUCUGGGCCAGGCAGGCAUCAAAAGAAAUAGUCUUGCGCACAACCAGAAAGUCUGUAAUCAUUUUAAGGGUA, 0.02; with GUUAACGGUCAUAGGCCAUGGAAACUAAGAGCACCAUUUCGCUGCCAGUGAAGAAAUGAACAAAGAAAAUCUGGGCCAGGCAGGCAUCAAAAGAAAUAGUCUUGCGCUCAACCAGAAAGUCUGUAAUCAUCUUAAGGGUA, 0.99. The figure for GUUAACGGUCAUAGGCCAUGGAAACUAGAAGCACCAUUUCGCUGCCAGUGAAGAAAUGAACAAAGAAAAUCUGGGCCAGGCAGGCAUCAAAAGAAAUAGUCUCGCGCUCAACCAGAAAGUCUGUAAUCAUUUUAAGGGUA is 0.77. For GUUAACGGUCAUAGGCCAUGGAAACUAUGAGCACCAUUUCGCUGCCAGUGAAGAAAUGAACAAAGAAAAUCUGGGCCAGGCAGGCAUCAAAAGAAAUAGUCUUGCGCUCAACCAGAAAGUCUGUAAUCAUUUUAAGGGUA, the self-cleavage turned out to be 0.74.

Consider GUUAACGGUCAUAGGCCAUGGAAACUACGAGCACCAUUUCGCUGCCAGUGAAGAAAUGAACAAAGAAAAUCUGGGCCAGGCAGGCAUCAAAAGAAAUAGUCUUGCGCUCAACCAGAAAGUCUGUAAUCAUUUUAAGGGUA, for which the self-cleavage came out at 0.93. The figure for GUUAACGGUCAUAGGCCAUGGAAACUAGCAGCACCAUUUCGCUGCCAGUGAAGAAAUGAACAAAGAAAAUCUGGGCCAGGCAGGCAUCAAGAGAAAUAGUCUUGCGCUCAACCAGAAAGUCUGUAAUCAUUUUAAGGGUA is 1.08; for GUUAACGGUCAUAGGCCAUGGAAACUAUGAGCACCAUUUCGCUGCCAGUGAAGAAAUGAGCAAAGAAAAUCUGGGCCAGGCAGGCAUCAAAAGAAAUAGUCUUGCGCUCAACCAGAAAGUCUGUAAUCAUUUUAAGGGUA it is 1.57.

Take GUUAACGGUCAUAGGCCAUGGAAACUAGCAGCACCAUUUCGCUGCCAGUGAAGAAAUGAACAAAGAAAAUCUGGGCCAGGCAGGCAUCAAAAGAAAUAGUCUUGCGCUCAACCAGAAAGUCUGUAACCAUUUUAAGGGUA: the self-cleavage turned out to be 0.39. With GUUAACGGUCAUAGGCCAUGGAAACUAGCAGCACCAUUUCGCUGCCAGUGAAGAAAUGAACAAAGAAAAUCUGGGCCAGGCAGGCAUCAAAAGAAGUAGUCUUGCGCUCAACCAGAAAGUCUGUAAUCAUUUUAAGGGUA the figure was 1.67; with GUUAACGGUCAUAGGCCAUGGAAACUAGAAGCACCAUUACGCUGCCAGUGAAGAAAUGAACAAAGAAAAUCUGGGCCAGGCAGGCAUCAAAAGAAAUAGUCUUGCGCUCAACCAGAAAGUCUGUAAUCAUUUUAAGGGUA, 1.8; with GUUAACGGUCAUAGGCCAUGGAAACUAGAAGCACCAUUUCGCUGCCAGUGAAGAAAUGAACAAAGAAAAUCUGGGCCAGGCAGGCAUCAAAAGAAAUAGUCUUGCGCUCAACCAGAAAGUCUGUAAUCAUUUUAAGGGCA, 2.53.

Take GUUAACGGUCAUAGGCCAUGGAAACUAGAAGCACCAUUUCGCUGCCAGUGAAGAAAUGAACAAAGAAAAUCUGGGCCAGGCAGGCAUCAAAAGAAAUAGUCUUGCGCUCAACCAGAAAGUCUGUAAUCAUUUUAAGGGGA: the self-cleavage came out at 0.86.

Regarding GUUAACGGUCAUAGGCCAUGGAAACUAGAAGCACCAUUUCGCUGCCAGUGAAGAAAUGAACAAAGAAAAUCUGGGCCGGGCAGGCAUCAAAAGAAAUAGUCUUGCGCUCAACCAGAAAGUCUGUAAUCAUUUUAAGGGUA, the self-cleavage worked out at 0.28.

As to GUUAACGGUCAUAGGCCAUGGAAACUAUGAGCACCAUUUCGCUGCCAGUGAAGAAAUGAACAAAGAAAAUCUGGGCCAGGCAGGCAUCAAAAGAAAUAGACUUGCGCUCAACCAGAAAGUCUGUAAUCAUUUUAAGGGUA, the self-cleavage came to 0.25. The figure for GUUAACGGUCAUAGGCCAUGGAAACUAUGAGCACCAUUUCGCUGCCAGUGAAGAAAUGAACAAAGAAAAUCUGGGCCAGGCAGGCAUCAAAAGAAAUAGCCUUGCGCUCAACCAGAAAGUCUGUAAUCAUUUUAAGGGUA is 2.35. With GUUAACGGUCAUAGGCCAUGGAAACUAUGAGCACCAUUUCGCUGCCAGUGAAGAAAUGAACAAAGAAGAUCUGGGCCAGGCAGGCAUCAAAAGAAAUAGUCUUGCGCUCAACCAGAAAGUCUGUAAUCAUUUUAAGGGUA the figure was 1.22; with GUUAACGGUCAUAGGCCAUGGAAACUAUGAGCACCAUUUCGCUGCCAGAGAAGAAAUGAACAAAGAAAAUCUGGGCCAGGCAGGCAUCAAAAGAAAUAGUCUUGCGCUCAACCAGAAAGUCUGUAAUCAUUUUAAGGGUA, 2.04; with GUUAACGGUCAUAGGCCAUGGAAACUAGAAGCACCAUUUCGCUGCCAGUGAAGAAAUGAACAAAGAAAAUCCGGGCCAGGCAGGCAUCAAAAGAAAUAGUCUUGCGCUCAACCAGAAAGUCUGUAAUCAUUUUAAGGGUA, 0.27. The figure for GUUAACGGUCAUAGGCCAUGGAAACUAGAGGCACCAUUUCGCUGCCAGUGAAGAAAUGAACAAAGAAAAUCUGGGCCAGGCAGGCAUCAAAAGAAAUAGUCUUGCGCUCAACCAGAAAGUCUGUAAUCAUUUUAAGGGUA is 1.16; for GUUAACGGUCAUAGGCCAUGGAAACUAUGAGCACCAUUUCGCUGCCAGUGAAGAAAUGAACAAAGAAAAUCUGGGCCAGGCAGGCAUCAAAAGAAAUAGUCUUGCGCUCAUCCAGAAAGUCUGUAAUCAUUUUAAGGGUA it is 0.3; for GUUAACGGUCAUAGGCCAUGGAAACUACGAGCACCAUUUCGCUGCCAGUGAAGAAAUGAACAAGGAAAAUCUGGGCCAGGCAGGCAUCAAAAGAAAUAGUCUUGCGCUCAACCAGAAAGUCUGUAAUCAUUUUAAGGGUA it is 0.77. As to GUUAACGGUCAUAGGCCAUGGAAACUAGUAGCACCAUUUCGCUGCCAGUGAAGAAAUGAACAGAGAAAAUCUGGGCCAGGCAGGCAUCAAAAGAAAUAGUCUUGCGCUCAACCAGAAAGUCUGUAAUCAUUUUAAGGGUA, the self-cleavage is 2.9. With GUUAACGGUCAUAGGCCAUGGAAACUAUGAGCACCAUUUCGCUGCCGGUGAAGAAAUGAACAAAGAAAAUCUGGGCCAGGCAGGCAUCAAAAGAAAUAGUCUUGCGCUCAACCAGAAAGUCUGUAAUCAUUUUAAGGGUA the figure was 2.28; with GUUAACGGUCAUAGGCCAUGGAAACUAGAAGCACCAUUUCGCUGCCAGUGAAGAAAUGAACAAAGAAAAUCUGGGCCAGGCAGGCAACAAAAGAAAUAGUCUUGCGCUCAACCAGAAAGUCUGUAAUCAUUUUAAGGGUA, 1.79.

Take GUUAACGGUCAUAGGCCAUGGAAACUAGAAGCACCAUUUCGCUGCCAGUGAAGAAAUGAACAAAGAAAAUCUGGGCCAGGCAGGCACCAAAAGAAAUAGUCUUGCGCUCAACCAGAAAGUCUGUAAUCAUUUUAAGGGUA: the self-cleavage was determined as 1.7. With GUUAACGGUCAUAGGCCAUGGAAACUAUGAGCACCAUUUCGCUGCCAGUGAAGAAAUGAACAAAGAAAAUCUGGGCCAGGCAGGCAUCAAAAGAAAUAGUCUUGCGCUCAACCAGAAAGUCUGUAAUCAUUUUCAGGGUA the figure was 2.09; with GUUAACGGUCAUAGGCCAUGGAAACUAGAAGCACCAUUUCGCUGCCAGUGAAGGAAUGAACAAAGAAAAUCUGGGCCAGGCAGGCAUCAAAAGAAAUAGUCUUGCGCUCAACCAGAAAGUCUGUAAUCAUUUUAAGGGUA, 1.96. The figure for GUUAACGGUCAUAGGCCAUGGAAACUAGCAGCACCAUUUCGUUGCCAGUGAAGAAAUGAACAAAGAAAAUCUGGGCCAGGCAGGCAUCAAAAGAAAUAGUCUUGCGCUCAACCAGAAAGUCUGUAAUCAUUUUAAGGGUA is 1.06.

Consider GUUAACGGUCAUAGGCCAUGGAAACUAAGAGCACCAUUUCGCUGCCAGUGAAGAAAUGAACAAAGAAAAUCUGGGCCAGGCAGGCAUCAAAAGAAAUAGUCUUGCGCUCAACCAGAAAGUCUGUAAUCACUUUAAGGGUA, for which the self-cleavage stood at 1.2.
